Data: IntAct's records for PubMed 31515488

B1: Translocator protein (Homo sapiens), P30536 (parent)
chain: MAPPWVPAMGFTLAPSLGCFVGSRFVHGEGLRWYAGLQKPSWHPPHWVLGPVWGTLYSAMGYGSYLVWKELGGFTEKAVVPLGLYTGQLALNWAWPPIFFGARQMGWALVDLLLVSGAAAATTVAWYQVSPLAARLLYPYLAWLAFTTTLNYCVWRDNHGWRGGRRLPE
partner: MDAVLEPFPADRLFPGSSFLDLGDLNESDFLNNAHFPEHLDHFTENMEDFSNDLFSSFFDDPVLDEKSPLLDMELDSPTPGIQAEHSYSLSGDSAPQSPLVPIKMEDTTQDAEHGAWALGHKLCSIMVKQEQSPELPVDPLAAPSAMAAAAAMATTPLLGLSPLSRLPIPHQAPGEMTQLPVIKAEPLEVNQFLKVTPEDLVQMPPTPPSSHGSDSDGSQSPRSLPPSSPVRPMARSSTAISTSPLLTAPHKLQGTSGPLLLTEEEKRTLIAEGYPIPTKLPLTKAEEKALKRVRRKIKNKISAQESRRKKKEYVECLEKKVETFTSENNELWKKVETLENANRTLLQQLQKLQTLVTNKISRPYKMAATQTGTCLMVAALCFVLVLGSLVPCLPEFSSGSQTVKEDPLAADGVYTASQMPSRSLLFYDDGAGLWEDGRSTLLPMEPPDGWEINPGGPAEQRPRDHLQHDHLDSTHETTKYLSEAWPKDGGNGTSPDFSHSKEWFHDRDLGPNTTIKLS
B2: DCC-interacting protein 13-beta (Homo sapiens), Q8NEU8 (parent)
chain: MPAVDKLLLEEALQDSPQTRSLLSVFEEDAGTLTDYTNQLLQAMQRVYGAQNEMCLATQQLSKQLLAYEKQNFALGKGDEEVISTLHYFSKVVDELNLLHTELAKQLADTMVLPIIQFREKDLTEVSTLKDLFGLASNEHDLSMAKYSRLPKKKENEKVKTEVGKEVAAARRKQHLSSLQYYCALNALQYRKQMAMMEPMIGFAHGQINFFKKGAEMFSKRMDSFLSSVADMVQSIQVELEAEAEKMRVSQQELLSVDESVYTPDSDVAAPQINRNLIQKAGYLNLRNKTGLVTTTWERLYFFTQGGNLMCQPRGAVAGGLIQDLDNCSVMAVDCEDRRYCFQITTPNGKSGIILQAESRKENEEWICAINNISRQIYLTDNPEAVAIKLNQTALQAVTPITSFGKKQESSCPSQNLKNSEMENENDKIVPKATASLPEAEELIAPGTPIQFDIVLPATEFLDQNRGSRRTNPFGETEDESFPEAEDSLLQQMFIVRFLGSMAVKTDSTTEVIYEAMRQVLAARAIHNIFRMTESHLMVTSQSLRLIDPQTQVSRANFELTSVTQFAAHQENKRLVGFVIRVPESTGEESLSTYIFESNSEGEKICYAINLGKEIIEVQKDPEALAQLMLSIPLTNDGKYVLLNDQPDDDDGNPNEHRGAESEA
B3: Keratin, type II cytoskeletal 79 (Homo sapiens), Q5XKE5 (parent)
chain: MRSSVSRQTYSTKGGFSSNSASGGSGSQARTSFSSVTVSRSSGSGGGAHCGPGTGGFGSRSLYNLGGHKSISVSVAGGALLGRALGGFGFGSRAFMGQGAGRQTFGPACPPGGIQEVTVNQSLLTPLHVEIDPEIQRVRTQEREQIKTLNNKFASFIDKVRFLEQQNKVLETKWALLQEQGQNLGVTRNNLEPLFEAYLGSMRSTLDRLQSERGRLDSELRNVQDLVEDFKNKYEDEINKHTAAENEFVVLKKDVDAAYMGRMDLHGKVGTLTQEIDFLQQLYEMELSQVQTHVSNTNVVLSMDNNRNLDLDSIIAEVKAQYELIAQRSRAEAEAWYQTKYEELQVTAGKHGDNLRDTKNEIAELTRTIQRLQGEADAAKKQCQQLQTAIAEAEQRGELALKDAQKKLGDLDVALHQAKEDLTRLLRDYQELMNVKLALDVEIATYRKLLESEESRMSGECPSAVSISVTGNSTTVCGGGAASFGGGISLGGSGGATKGGFSTNVGYSTVKGGPVSAGTSILRKTTTVKTSSQRY
partner: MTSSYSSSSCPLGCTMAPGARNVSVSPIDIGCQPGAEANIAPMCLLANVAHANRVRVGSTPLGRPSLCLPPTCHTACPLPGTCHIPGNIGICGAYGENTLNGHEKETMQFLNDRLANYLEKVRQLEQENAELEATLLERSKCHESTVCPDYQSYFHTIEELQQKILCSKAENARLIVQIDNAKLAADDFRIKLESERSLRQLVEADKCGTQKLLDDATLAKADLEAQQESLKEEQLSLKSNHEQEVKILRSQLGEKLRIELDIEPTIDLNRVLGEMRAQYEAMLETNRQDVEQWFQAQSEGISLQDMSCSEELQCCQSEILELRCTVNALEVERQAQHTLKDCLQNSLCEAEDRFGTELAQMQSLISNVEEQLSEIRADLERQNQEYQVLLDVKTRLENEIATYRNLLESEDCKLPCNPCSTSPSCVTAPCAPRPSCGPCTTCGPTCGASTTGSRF
B4: Modulator of apoptosis 1 (Homo sapiens), Q96BY2 (parent)
chain: MTLRLLEDWCRGMDMNPRKALLIAGISQSCSVAEIEEALQAGLAPLGEYRLLGRMFRRDENRKVALVGLTAETSHALVPKEIPGKGGIWRVIFKPPDPDNTFLSRLNEFLAGEGMTVGELSRALGHENGSLDPEQGMIPEMWAPMLAQALEALQPALQCLKYKKLRVFSGRESPEPGEEEFGRWMFHTTQMIKAWQVPDVEKRRRLLESLRGPALDVIRVLKINNPLITVDECLQALEEVFGVTDNPRELQVKYLTTYQKDEEKLSAYVLRLEPLLQKLVQRGAIERDAVNQARLDQVIAGAVHKTIRRELNLPEDGPAPGFLQLLVLIKDYEAAEEEEALLQAILEGNFT
partner: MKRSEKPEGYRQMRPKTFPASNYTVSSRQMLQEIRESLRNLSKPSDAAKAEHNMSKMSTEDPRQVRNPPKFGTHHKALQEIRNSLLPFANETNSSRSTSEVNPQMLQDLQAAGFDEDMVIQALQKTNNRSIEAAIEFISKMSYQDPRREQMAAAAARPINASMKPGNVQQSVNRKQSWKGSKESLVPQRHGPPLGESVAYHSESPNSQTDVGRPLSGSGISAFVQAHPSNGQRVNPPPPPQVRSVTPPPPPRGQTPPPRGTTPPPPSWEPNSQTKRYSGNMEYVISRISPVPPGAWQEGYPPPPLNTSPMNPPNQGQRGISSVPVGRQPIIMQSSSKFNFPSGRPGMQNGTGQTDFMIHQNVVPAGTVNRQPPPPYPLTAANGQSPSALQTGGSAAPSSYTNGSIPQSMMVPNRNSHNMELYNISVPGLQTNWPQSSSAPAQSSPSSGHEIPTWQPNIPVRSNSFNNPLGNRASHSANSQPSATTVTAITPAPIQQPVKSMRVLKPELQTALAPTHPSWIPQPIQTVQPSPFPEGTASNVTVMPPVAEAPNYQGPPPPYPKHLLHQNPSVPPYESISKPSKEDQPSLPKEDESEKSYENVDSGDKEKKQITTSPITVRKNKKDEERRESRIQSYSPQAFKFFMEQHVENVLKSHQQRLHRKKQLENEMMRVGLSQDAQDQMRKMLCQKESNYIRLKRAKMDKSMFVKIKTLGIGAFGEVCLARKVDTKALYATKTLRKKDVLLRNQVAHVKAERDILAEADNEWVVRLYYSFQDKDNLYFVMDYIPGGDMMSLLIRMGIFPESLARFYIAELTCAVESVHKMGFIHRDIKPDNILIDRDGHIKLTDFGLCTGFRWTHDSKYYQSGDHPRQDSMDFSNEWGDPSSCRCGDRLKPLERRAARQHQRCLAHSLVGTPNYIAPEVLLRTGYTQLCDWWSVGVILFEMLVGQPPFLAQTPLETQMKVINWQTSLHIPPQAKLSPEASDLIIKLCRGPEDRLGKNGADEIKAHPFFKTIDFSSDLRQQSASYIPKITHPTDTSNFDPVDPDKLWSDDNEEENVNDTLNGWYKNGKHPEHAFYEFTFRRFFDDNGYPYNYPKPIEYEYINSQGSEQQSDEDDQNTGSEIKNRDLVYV

Variants of: B1
Conditions: with cr3l1_human CREB3L1, Q96BA8

Variant | effect of a mutation on the interaction
A119V | disrupting interaction strength

Variants of: B2
Conditions: with cradd_human CRADD

Variant | effect of a mutation on the interaction
H205R | with no effect

Variants of: B2
Conditions: with suv92_human SUV39H2, Q9H5I1
Chain of suv92_human SUV39H2, Q9H5I1 (Q9H5I1 whole entry): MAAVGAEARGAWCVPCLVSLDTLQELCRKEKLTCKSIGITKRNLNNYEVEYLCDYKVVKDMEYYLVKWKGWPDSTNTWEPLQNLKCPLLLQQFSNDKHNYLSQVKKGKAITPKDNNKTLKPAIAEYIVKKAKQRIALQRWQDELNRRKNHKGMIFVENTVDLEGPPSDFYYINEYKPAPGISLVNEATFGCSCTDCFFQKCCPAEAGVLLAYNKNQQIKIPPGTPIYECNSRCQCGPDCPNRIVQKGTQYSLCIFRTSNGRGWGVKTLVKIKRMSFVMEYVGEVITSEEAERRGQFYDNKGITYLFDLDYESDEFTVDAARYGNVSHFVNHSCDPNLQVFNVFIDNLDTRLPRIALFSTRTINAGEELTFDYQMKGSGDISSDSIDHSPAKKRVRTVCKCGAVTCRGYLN

Variant | effect of a mutation on the interaction
H205R | with no effect

Variants of: B2
Conditions: with rab5c_human RAB5C

Variant | effect of a mutation on the interaction
K70R | with no effect

Variants of: B3
Conditions: with krt38_human KRT38, O76015

Variant | effect of a mutation on the interaction
R30C | with no effect
R161Q | with no effect
G86E | with no effect

The next lines start with the values.

effect of a mutation on the interaction | Variant
with no effect | D217Y
disrupting interaction strength | R213W
with no effect | H266R

Variants of: B4
Conditions: with lats1_human LATS1, O95835

Variant | effect of a mutation on the interaction
R57K | disrupting interaction strength
